Source: US20230192896A1 (BIOVERATIV THERAPEUTICS, published 2023)
Where a chain is given by its changes, count along the chain named.

B1: BIIB-12-891 (antibody, V domains shown)
VH: QVQLVQSGAEVKKPGASVKVSCKASGYTFTSYYIHWVRQAPGQGLEWMGIINPSGGSTSYAQKFQGRVTMTRDTSTSTVYMELSSLRSEDTAVYYCARASIYRGLGAFDIWGQGTMVTVSS
VL: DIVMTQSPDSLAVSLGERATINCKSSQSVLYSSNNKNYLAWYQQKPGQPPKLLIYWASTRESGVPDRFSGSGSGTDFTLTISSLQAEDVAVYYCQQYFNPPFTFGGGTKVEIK
notes: IgG
B2: BIIB-12-892 (antibody, V domains shown)
VH: B1 VH with I34M, A99G, S100L, I101G, Y102R, G104T, L105P, G106T
VL: EIVLTQSPATLSLSPGERATLSCRASQSVSSYLAWYQQKPGQAPRLLIYDASNRATGIPARFSGSGSGTDFTLTISSLEPEDFAVYYCQQRLNLPLTFGGGTKVEIK
notes: IgG
B3: BIIB-12-909 (antibody, V domains shown)
VH: QVQLVESGGGVVQPGRSLRLSCAASGFTFSSYGMHWVRQAPGKGLEWVAVISYDGSNKYYADSVKGRFTISRDNSKNTLYLQMNSLRAEDTAVYYCAKGKHRRRSFDIWGQGTMVTVSS
VL: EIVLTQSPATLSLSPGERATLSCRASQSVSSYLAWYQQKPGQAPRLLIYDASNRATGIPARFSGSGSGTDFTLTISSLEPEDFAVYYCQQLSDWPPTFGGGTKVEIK
notes: IgG
B4: BIIB-12-907 (antibody, V domains shown)
VH: QVQLQESGPGLVKPSETLSLTCAVSGYSISSGYYWAWIRQPPGKGLEWIGSIYHSGSTYYNPSLKSRVTISVDTSKNQFSLKLSSVTAADTAVYYCARESGMSGAAYWGQGTLVTVSS
VL: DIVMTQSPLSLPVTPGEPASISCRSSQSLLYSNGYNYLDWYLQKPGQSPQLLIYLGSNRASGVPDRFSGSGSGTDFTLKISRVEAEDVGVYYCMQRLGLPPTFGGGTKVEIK
notes: IgG
B5: BIIB-12-895 (antibody, V domains shown)
VH: QVQLVQSGAEVKKPGASVKVSCKASGYTFTSYYMHWVRQAPGQGLEWMGIINPSGGSTSYAQKFQGRVTMTRDTSTSTVYMELSSLRSEDTAVYYCARGGGYKSRGIDYWGQGTLVTVSS
VL: DIQMTQSPSSVSASVGDRVTITCRASQGISSWLAWYQQKPGKAPKLLIYAASSLQSGVPSRFSGSGSGTDFTLTISSLQPEDFATYYCQQASSFPFTFGGGTKVEI
notes: IgG
B6: BIIB-12-903 (antibody, V domains shown)
VH: B5 VH with G99D, G100L, K103T, S104A, R105G, G106A, I107F, D108G
VL: B2 VL with L92A, L94W, L96P
notes: IgG
B7: BIIB-12-893 (antibody, V domains shown)
VH: QVQLVQSGAEVKKPGASVKVSCKASGYTFTSYYMVWVRQAPGQGLEWMGIINPSGGSTSYAQKFQGRVTMTRDTSTSTVYMELSSLRSEDTAVYYCARDPGRRQYSFYGMDVWGQGTTVTVSS
VL: DIQLTQSPSSVSASVGDRVTITCRASQGISSWLAWYQQKPGKAPKLLIYAASSLQSGVPSRFSGSGSGTDFTLTISSLQPEDFATYYCQQAAAFPFTFGGGTKVEIK
notes: IgG
B8: BIIB-12-898 (antibody, V domains shown)
VH: QVQLVQSGAEVKKPGASVKVSCKASGYTFTSYYMHWVRQAPGQGLEWMGIINPSGGSTTYAQKFQGRVTMTRDTSTSTVYMELSSLRSEDTAVYYCARGDRMLRAFDPWGQGTLVTVSS
VL: B7 VL with S10T, V11L, G28A, A50D, Q55E, D70E, E81D, A91V, A92N, A93R
notes: IgG
B9: BIIB-12-1314 (antibody, V domains shown)
VH: QVQLVESGGGVVQPGRSLRLSCAASGFTFSSYGMHWVRQAPGKGLEWVAVISYDGSNKYYADSVKGRFTISRDNSKNTLYLQMNSLRAEDTAVYYCAKGTRWAGNWGQGTLVTVSS
VL: B7 VL with L4M, A92N, A93F, F96I
notes: IgG
B10: BIIB-12-910 (antibody, V domains shown)
VH: QVQLQESGPGLVKPSQTLSLTCTVSGGSISSGGYYWSWIRQHPGKGLEWIGSIYYSGSTYYNPSLKSRVTISVDTSKNQFSLKLSSVTAADTAVYYCARGPLQRQVRYFDLWGRGTLVTVSS
VL: B7 VL with L4M, V11L, G28S, W32Y, A34N, A91L, A92S, A93H, F94T
notes: IgG
B11: BIIB-12-896 (antibody, V domains shown)
VH: B5 VH with G100L, Y102Q, K103Q, S104R, I107F, Y109I
VL: B7 VL with L4M, A92N, A93S
notes: IgG
B12: BIIB-12-1294 (antibody, V domains shown)
VH: B8 VH with T59S, D100T, M102S, L103S, A105D, F106M, P108V, L114T
VL: DIQMTQSPSTLSASVGDRVTITCRASQSISSWLAWYQQKPGKAPKLLIYKASSLESGVPSRFSGSGSGTEFTLTISSLQPDDFATYYCQQVNTFPFTFGGGTKVEIK
notes: IgG
B13: BIIB-12-908 (antibody, V domains shown)
VH: B9 VH with T100P, W102G, A103M, G104D, N105V, L111T
VL: B7 VL with A50G, A91G, A92S, A93S, F94L, F96I
notes: IgG
B14: BIIB-12-1300 (antibody, V domains shown)
VH: B9 VH with K98R, T100S, R101K, W102Y, A103L, G104H, N105A
VL: B7 VL with L4M, A92S, A93S, F96P
notes: IgG
B15: BIIB-12-1293 (antibody, V domains shown)
VH: B5 VH with G100S, Y102G, S104H, I107L, Y109V, L115M
VL: B7 VL with L4M, A92N, A93I
notes: IgG
B16: BIIB-12-1290 (antibody, V domains shown)
VH: B5 VH with S54G, G99E, Y102R, K103Y, S104V, I107M, Y109V, L115T
VL: B7 VL with L4M, A91G, A92F, A93S
notes: IgG
B17: BIIB-12-906 (antibody, V domains shown)
VH: B9 VH with G99S, T100S, W102H, A103F, G104D, N105Y, Q108R
VL: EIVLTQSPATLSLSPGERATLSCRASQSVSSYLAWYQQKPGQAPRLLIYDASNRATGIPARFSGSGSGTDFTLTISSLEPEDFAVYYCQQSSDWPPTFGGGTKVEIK
notes: IgG
B18: BIIB-12-1311 (antibody, V domains shown)
VH: B9 VH with T100R, R101H, W102Y, A103W, G104A, N105V
VL: B2 VL with R91A, L92S, L96P
notes: IgG
B19: BIIB-12-900 (antibody, V domains shown)
VH: QVQLVQSGAEVKKPGASVKVSCKASGYTFTSYYMHWVRQAPGQGLEWMGIINPGGGSTSYAQKFQGRVTMTRDTSTSTVYMELSSLRSEDTAVYYCARSGGMYDRELGMDVWGQGTTVTVSS
VL: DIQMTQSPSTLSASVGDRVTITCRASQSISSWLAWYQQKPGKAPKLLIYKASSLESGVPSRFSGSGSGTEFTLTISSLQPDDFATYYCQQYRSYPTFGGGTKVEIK
notes: IgG
B20: BIIB-12-901 (antibody, V domains shown)
VH: B19 VH with H35S, G54S, G100R, G101P, M102R, Y103R, D104P, R105S, E106P, L107Y
VL: B2 VL with R91S, L92A, L94F, L96F
notes: IgG
B21: BIIB-12-911 (antibody, V domains shown)
VH: QVQLVESGGGVVQPGRSLRLSCAASGFTFSSYGMHWVRQAPGKGLEWVAVISYDGSNKYYADSVKGRFTISRDNSKNTLYLQMNSLRAEDTAVYYCARGRGMDVWGQGTTVTVSS
VL: B2 VL with L92S, L94F, L96I
notes: IgG
B22: BIIB-12-897 (antibody, V domains shown)
VH: QLQLQESGPGLVKPSETLSLTCTVSGGSISSSSYYWGWIRQPPGKGLEWIGSIYYSGSTYYNPSLKSRVTISVDTSKNQFSLKLSSVTAADTAVYYCAREGRTYYGGWFDPWGQGTLVTVSS
VL: EIVLTQSPGTLSLSPGERATLSCRASQSVSSSYLAWYQQKPGQAPRLLIYGASSRATGIPDRFSGSGSGTDFTLTISRLEPEDFAVYYCQQDGNYPYTFGGGTKVEIK
notes: IgG
B23: BIIB-12-905 (antibody, V domains shown)
VH: B9 VH with T100G, R101T, W102Y, A103L, G104D, N105T
VL: B22 VL with S30R, D92Y, N94R, Y95F, Y97P
notes: IgG
B24: BIIB-12-928 (antibody, V domains shown)
VH: B9 VH with S7F, G9V, T100G, R101T, W102Y, A103L, G104D, N105T
VL: B22 VL with S30R, D92Y, G93V, N94R, Y95F, Y97L
notes: IgG
B25: BIIB-12-899 (antibody, V domains shown)
VH: QVQLVQSGAEVKKPGASVKVSCKASGYTFTSYYMHWVRQAPGQGLEWMGIINPSGGSTSYAQKFQGRVTMTRDTSTSTVYMELSSLRSEDTAVYYCARGPRTSSPLYFDLWGRGTLVTVSS
VL: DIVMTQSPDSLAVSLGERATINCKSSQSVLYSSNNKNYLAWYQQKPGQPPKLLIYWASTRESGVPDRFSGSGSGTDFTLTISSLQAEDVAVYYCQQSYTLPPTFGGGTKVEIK
notes: IgG
B26: BIIB-12-904 (antibody, V domains shown)
VH: QVQLVESGGGVVQPGRSLRLSCAASGFTFSSYGMHWVRQAPGKGLEWVAVISYDGSNKYYADSVKGRFTISRDNSKNTLYLQMNSLRAEDTAVYYCARGSGRSGYHYWGQGTLVTVSS
VL: EIVMTQSPATLSVSPGERATLSCRASQSVSSNLAWYQQKPGQAPRLLIYGASTRATGIPARFSGSGSGTEFTLTISSLQSEDFAVYYCQQAFNWPPTFGGGTKVEIK
notes: IgG
B27: BIIB-12-912 (antibody, V domains shown)
VH: B26 VH with R98K, G99S, S100G, S103Y, H106D, Y107I, L113M
VL: B26 VL with A91F, F92H, W94F
notes: IgG
B28: BIIB-12-1299 (antibody, V domains shown)
VH: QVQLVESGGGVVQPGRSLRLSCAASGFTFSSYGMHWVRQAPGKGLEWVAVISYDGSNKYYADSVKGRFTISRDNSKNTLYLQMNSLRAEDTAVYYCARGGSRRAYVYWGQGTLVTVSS
VL: B26 VL with A91L, F92N, W94F, P96I
notes: IgG
B29: BIIB-12-902 (antibody, V domains shown)
VH: QVQLVQSGAEVKKPGASVKVSCKASGYTFTSYYMHWVRQAPGQGLEWMGIINPGGGSTSYAQKFQGRVTMTRDTSTSTVYMELSSLRSEDTAVYYCARGGPRRAYSWYFDYWGQGTLVTVSS
VL: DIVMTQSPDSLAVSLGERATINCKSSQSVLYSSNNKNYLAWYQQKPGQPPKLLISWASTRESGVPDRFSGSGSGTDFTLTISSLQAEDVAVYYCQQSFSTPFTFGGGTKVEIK
notes: IgG

Molecular target: T1, non-activatable Factor X (FXn) (Homo sapiens (Human), UniProt P00742 41-488, single biotin on the C-terminal BioTag)
T1 construct: also called BIIB-FX-015
Test: BLI; class meaning: paragraph 285

Binding result, binds:
B1
B2
B3
B4
B5
B6
B7
B8
B9
B10
B11
B12
B13
B14
B15
B16
B17
B18
B19
B20
B21
B22
B23
B24
B25
B26
B27
B28
B29
